Data as given in publication doi:10.1101/2023.01.30.525828, “A versatile synaptotagmin-1 nanobody provides perturbation-free live synaptic imaging and low linkage-error in super-resolution microscopy” (bioRxiv, 2023).

Experiments:
[1] = target: T1, cytosolic (amino acids 97-421) domain of rat Syt-1 (Rattus norvegicus (Rat)., UniProt P21707); assay: MST; NbSyt1 labelled with Alexa647 in MST buffer with 0.05 % Tween, incubated with dilutions of purified Syt-1(97-421); NT.115Pico Monolith; conditions: both partners purified
T1 construct: Synaptotagmin 1, rat, cytosolic domain, amino acids 97-421; also called rSyt-1(97-421); Syt-1(97-421); source: E. coli NEB-Express, purified (Ni beads, eluted on column with SUMO protease)

[2] = target: T2, desthio-biotinilated Syt-1(97-421) (Rattus norvegicus (Rat)., UniProt P21707, desthiobiotin (conjugated with desthiobiotin-N-hydroxysuccinimide ester)); assay: ELISA; phage ELISA: desthio-biotinilated Syt-1(97-421) immobilised overnight at 4°C on MaxiSorp plate; 25 μl phage supernatant in 5% skim milk PBS-T, 1 h RT; detected with anti-M13-HRP; conditions: one partner purified
T2 construct: Synaptotagmin 1, rat, cytosolic domain, amino acids 97-421; The phage-display methods also print Syt-1(197-421) for this antigen; also called rSyt-1(97-421); immobilized cytosolic rSyt-1(97-421); source: E. coli NEB-Express, purified (Ni beads, SUMO protease elution), conjugated to desthiobiotin-NHS ester

[3] = target: T1, cytosolic (amino acids 97-421) domain …; assay: far-Western, overlay or dot blot; dot blot: ~1 μg target protein spotted on nitrocellulose; NbA51 or NbA91 labeled with AbberiorStar635p at 5 nM in 5% milk PBS-Tween20, 1 h; conditions: both partners purified
[4] = target: T3, full-length rat Syt-1 fused to EGFP (Rattus norvegicus (Rat)., UniProt P21707); assay: immunostaining of cells or tissue; COS-7 cells transfected with Syt1-EGFP, fixed with 4% PFA, permeabilised; 50 nM fluorescent nanobody, 2 h RT; conditions: one partner purified
T3 construct: Synaptotagmin 1, rat, full length; also called Syt1-EGFP; source: COS-7, transiently transfected, in fixed cells
T3 sequence (P21707 whole entry, the tested form may be a part): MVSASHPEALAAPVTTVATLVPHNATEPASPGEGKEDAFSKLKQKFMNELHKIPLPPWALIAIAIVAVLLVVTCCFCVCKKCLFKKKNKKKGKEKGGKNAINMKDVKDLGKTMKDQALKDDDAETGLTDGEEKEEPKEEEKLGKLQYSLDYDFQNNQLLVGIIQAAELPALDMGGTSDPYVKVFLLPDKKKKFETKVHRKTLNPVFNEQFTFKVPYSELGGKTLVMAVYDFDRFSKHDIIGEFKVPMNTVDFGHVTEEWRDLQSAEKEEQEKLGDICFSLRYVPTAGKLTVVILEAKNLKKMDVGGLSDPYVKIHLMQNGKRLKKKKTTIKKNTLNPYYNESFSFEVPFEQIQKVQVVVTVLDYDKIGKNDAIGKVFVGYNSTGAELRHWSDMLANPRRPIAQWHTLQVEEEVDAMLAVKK

T1 sequence (P21707 97-421): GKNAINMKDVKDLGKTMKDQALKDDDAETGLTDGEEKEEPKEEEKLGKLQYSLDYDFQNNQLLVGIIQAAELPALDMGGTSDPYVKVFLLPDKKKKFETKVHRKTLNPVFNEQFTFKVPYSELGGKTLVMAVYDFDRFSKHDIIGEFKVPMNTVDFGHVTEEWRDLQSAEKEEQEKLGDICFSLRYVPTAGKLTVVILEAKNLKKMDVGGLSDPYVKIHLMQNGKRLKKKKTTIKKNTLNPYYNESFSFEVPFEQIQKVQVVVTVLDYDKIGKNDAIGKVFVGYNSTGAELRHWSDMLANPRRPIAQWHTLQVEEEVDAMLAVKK
T2 sequence (P21707 97-421): as above

B1: NbSyt1 labelled with Alexa647 (VHH)
VHH: EVQLEESGGGLVRPGGSLRLSCAASGFPFSKYFMSWVRQAPGKGLEWVSTISASGNYETYTESVKGRFTIARDNAKNTLYLQMNSLKPEDTAVYYCAKGSWARDMTRGQGTQVTVSS
notes: also called Fluorescent NbSyt1; source: E. coli SHuffle Express (NEB), purified (Ni beads, SUMO protease elution), labelled with maleimide fluorophore
[1]
  Kd: 0.7 ± 0.3 nM

B2: clone A91 displayed on phage (VHH)
VHH: EVQLVESGGGLVQPGGSLRLSCVASGFPFSKYFMSWVRQAPGKGLEWVSTISSSGSTTTYTESVKGRFTISRDNAKNTLYLQMNNLKPEDTAVYYCEKGSWAPNNARGQGTQVS
notes: alpaca nanobody clone A91; One of the five clones positive in the phage ELISA; the fusion partner on the phage is surmised from the phagemid; also called NbA91
[2]
  binding result: binds

B3: NbA91 directly labeled with AbberiorStar635p (VHH)
VHH: B2 VHH
notes: alpaca nanobody clone A91; with one or two ectopic cysteines (at the C-terminus or at N- and C-termini); also called Nb-Ab635p
[3]
  binding result: binds
[4]
  binding result: binds
